From the nanobody polyreactivity screen of Harvey et al. (2022) come the findings set out here.

A short description of this data set: yeast display, Sf9 membrane polyspecificity reagent, FACS + sequencing; frameworks hold sequencing errors. The procedure, abridged:
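Synthetic nanobody libraries on Saccharomyces cerevisiae BJ5465 were galactose-induced for 36–48 hours, stained 1 hour at 4 °C with 10% biotinylated, detergent-solubilized Sf9 membrane reagent and enriched on streptavidin microbeads. FACS then separated cells into low and high (top ~1%) gates by anti-HA (expression) and streptavidin (reagent binding) fluorescence. Genes were colony-PCR amplified, MiSeq 2 × 250 sequenced and CDR-length filtered. A clone's polyreactivity label is that of its gate of origin.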
For the sequence “QVQLVESGGGLVQAGGSLRLSCAASGFTFYYNAMGWYRQAPGKERELVAVISSSGSRTYYADSVKGRFTISRYNAKNTVYLQMNSLKPEDTAVYYCAAARIGTRDYWGQGTQVSVSS”, the “polyreactivity (PSR sort gate)” value is “high polyreactivity”.

For “QVQLVESGGGLVQAGGSLRLSCAASGFTFYYNDMGWYRQAPGKERELVATITNS”, the “polyreactivity (PSR sort gate)” value is “low polyreactivity”.

Turning to “QVQLVESGGGLVQAGGSLRLSCAASGFTFYYYAMGWYRQAPGKERELVAAINRSGGSTYYADSVKGRFTISRDNAKNTVYLQMNSLKPEDTAVYYCNKRLLVSRSSAQPYGYWGQGTQVTVSS”, the “polyreactivity (PSR sort gate)” value is “high polyreactivity”.

Regarding “QVQLVESGGGLVQAGGSLRLSCAASGFTFYYYAMGWYRQAPGKERELVATISRSGGSTYYADSVKGRFTISRDNAKNTVYLQMNSLKPEDTAVYYCAARSYKSPRDYDYWGQGTQVTVSS”, the “polyreactivity (PSR sort gate)” value is listed as “high polyreactivity”.

As for “QVQLVESGGGLVQAGGSLRLSCAASGFTFYYYAMGWYRQAPGTERELVASITSTDSTTYADSVKGRFTISRDNAKNTVYLQMNSLKPEDTAVYYFNRLYYHWYGGLDYWGHGTQVTVSS”, the “polyreactivity (PSR sort gate)” value was “high polyreactivity”.

Take “QVQLVESGGGLVQAGGSLRLSCAASGFTFYYYPMGWYRQAPGKERELVAAITWRGGSTNYADSVKGRFTISRDNAKNTVYLLMISLKPEDTAVYYCAAVTYWFWPGMDYWGQGTQVTVSS”: the “polyreactivity (PSR sort gate)” value was “low polyreactivity”.

With “QVQLVESGGGLVQAGGSLRLSCAASGFTFYYYTMGWYRQAPGKERELVAGISGTGGSTYYADSVKGRFTISRDNAKNTVYLQMNSLKPEDTAVYYCAAGPWYWGQGTQVTVSS”, the “polyreactivity (PSR sort gate)” value is given as “low polyreactivity”.

“QVQLVESGGGLVQAGGSLRLSCAASGFTFYYYTMGWYRQAPGKERELVAVITGGGGSTYYADSVKGRFTISRDNAKNTVYLQMNSLKPEDTAVYYCAAKFYGWYRQRGYDYWGQGTQVTVSS”: the “polyreactivity (PSR sort gate)” value is “high polyreactivity”.

In the case of “QVQLVESGGGLVQAGGSLRLSCAASGFTFYYYVMGWSRQAPGKERELVAAITRSGGSTYYADSVKGRFTISRDNAKNTVYLQMNSLKPEDTAVYYCNAYVPPKAASAAYDYWGQGTQVTVSS”, the “polyreactivity (PSR sort gate)” value is given as “high polyreactivity”.

Regarding “QVQLVESGGGLVQAGGSLRLSCAASGFTIGSNAMGWYRPAPGKEWELVAAISYTCSTYYAESVKGRFTISRDNAKNTVYLQKNSLKPEDTAVYYGNAESDTPSYDDWGQGTQVTVSS”, the “polyreactivity (PSR sort gate)” value is on record as “low polyreactivity”.

As to “QVQLVESGGGLVQAGGSLRLSCAASGFTIHNYAMGWYRQAPGKERELVARITRSGGTTYYADSVKGRFTISRDNAKNTVYLQMNSLKPEDTAVYYCAARRYGYTSITWYDYWGQGTQVTVSS”, the “polyreactivity (PSR sort gate)” value is “high polyreactivity”.

On to “QVQLVESGGGLVQAGGSLRLSCAASGFTILRYAMGWYRQAPGKERDLVAAISTSGGSTSYADSVKGRFTISRDNAKNTVYVQMYSLKPEDSAVYYCKAVLYKAYWQLYDYWGQGSQVTVSS”, for which the “polyreactivity (PSR sort gate)” value is given as “high polyreactivity”.

For the sequence “QVQLVESGGGLVQAGGSLRLSCAASGFTIRNYAMGLYRQAPGKERELFAAIRGRGGSTYYADSVKGRFTISRDNAKNTDYLQMNSLKPEDTAVYYCARVGYASYEHDYWGQGTQVNVSS”, the “polyreactivity (PSR sort gate)” value was “high polyreactivity”.

In the case of “QVQLVESGGGLVQAGGSLRLSCAASGFTISDNAMGWYRQAPGKERELVAAITSGTSTYYADSVKGRFTISRDNAKNTVYLQMNSLKPEDTAVYYCAARTYYSGYLWARGYWGQGTQVTVSS”, the “polyreactivity (PSR sort gate)” value is “high polyreactivity”.

For the sequence “QVQLVESGGGLVQAGGSLRLSCAASGFTISFYAMGWYRQAPGKERELVAAITWNGGNTYYADSVKGRFTISRDNAKNTVYLQMNSLKPEDTAVYYCNKDSYYYHFDYWGQGTQVTVSS”, the “polyreactivity (PSR sort gate)” value is reported as “high polyreactivity”.

On to “QVQLVESGGGLVQAGGSLRLSCAASGFTITYNAMGWYRKAPGKEREFVAAITNNGSTYYADSVKGRFTISRDNAKNTVYLQMNSLKPEDTAVYYCAVDPGYYDEYKYWGQGTQVTVSS”, for which the “polyreactivity (PSR sort gate)” value was “low polyreactivity”.

Take “QVQLVESGGGLVQAGGSLRLSCAASGFTIVWYAMGWYRQATGKERELVAAISSGVSTYYADSVKGRFTISRDNAKNTVYLQMNSLKPEDTAVYYCAADREYYDEYAGYEYWGQGTQVTVSS”: the “polyreactivity (PSR sort gate)” value is listed as “low polyreactivity”.
